Source: PMC7754295
Blank lines part the entries; values can stand above or below the substance they belong to.

How the values were obtained:
Assay in all cases: native gel or EMSA
[1] = target: NpHV1‐GFP (Nicoletia phytophila voltage‐gated proton channel 1 with GFP) (Nicoletia phytophila)
[2] = target: NpHV1‐GFP with C‐terminal deca‐His Tag (Nicoletia phytophila)
[3] = target: NpHV1‐GFP with C‐terminal StrepTagII (Nicoletia phytophila)

- stoichiometry N [1]: 2
Substance: NpHV1‐GFP (Nicoletia phytophila voltage‐gated proton channel 1 with GFP) (natural protein)

- stoichiometry N [2]: 2
Substance: NpHV1‐GFP with C‐terminal deca‐His Tag (natural protein)

- stoichiometry N [3]: 2
Substance: NpHV1‐GFP with C‐terminal StrepTagII (natural protein)
